Results reported in patent US20220177587A1, “METHODS AND USES OF VARIANT CD80 FUSION PROTEINS AND RELATED CONSTRUCTS” (Alpine Immune Sciences, Inc., priority 2018, published 2022).

Experiments:
CD28 = CD28 (Homo sapiens, UniProt P10747); assay: Jurkat/IL2 + K562/OKT3/PD-L1 reporter assay; type: cell-based; design: host or cells: Jurkat cells expressing an IL-2-luciferase reporter; conditions: K562/OKT3/PD-L1 aAPC, 50 nM; for Fold Increase over WT CD80-IgV-Fc / Relative Luciferase Units (RLU), CD80-Fc Conc. 50 nM: Table E7; for Relative Luciferase Units (RLU), CD80-Fe Cone 50 nM / Fold Increase over WT CD80-IgV-Fe: Table E8
allogeneic CD4+ T cells = assay: Mixed Lymphocyte Reaction (MLR), IFN-gamma; type: cell-based, human; conditions: Table E33; culture supernatant
Procedure: Soluble rCD80.Fc bioactivity was tested in a human Mixed Lymphocyte Reaction (MLR). Human primary dendritic cells (DC) were generated by culturing monocytes isolated from PBMC (BenTech Bio, USA) in vitro for 7 days with 500U/ml rIL-4 (R&D Systems, USA) and 250 U/ml rGM-CSF (R&D Systems, USA) in Ex-Vivo 15 media (Lonza, Switzerland). 10,000 matured DC and 100,000 purified allogeneic CD4+ T cells (BenTech Bio, USA) were co-cultured with variant CD80 Fc fusion proteins and controls in 96 well round bottom plates in 200 μl final volume of Ex-Vivo 15 media. On day 5, IFN-gamma secretion in culture supernatants was analyzed using the Human IFN-gamma Duoset ELISA kit (R&D Systems, USA). Optical density was measured by VMax ELISA Microplate Reader (Molecular Devices, USA) and quantitated against titrated rIFN-gamma standard included in the IFN-gamma Duo-set kit (R&D Systems, USA).

human pan T cells = assay: Anti-CD3 coimmobilization assay, IFN-gamma; type: cell-based; conditions: Table E33; culture supernatant, 3 days
Outline: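 Plates coated overnight with 1 nM or 4 nM OKT3 anti-CD3 plus 1–80 nM rCD80.Fc variants, then washed. Purified human pan T cells or BC3 T cell clone (100,000/well) cultured 3 days in Ex-Vivo 15; supernatant IFN-gamma measured by ELISA.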

B1: Q33L/E35D/M47L/A71G/F925 (protein)
chain: VIHVTKEVKEVATLSCGHNVSVEELAQTRIYWLKDKKMVLTMMSGDLNIWPEYKNRTIFDITNNLSIVILGLRPSDEGTYECVVLKYEKDASKREHLAEVTLSVKADEPKSSDKTHTCPPCPAPEAEGAPSVFLFPPKPKDTLMISRTPEVTCVVVDVSHEDPEVKFNWYVDGVEVHNAKTKPREEQYNSTYRVVSVLTVLHQDWLNGKEYKCKVSNKALPAPIEKTISKAKGQPREPQVYTLPPSREEMTKNQVSLTCLVKGFYPSDIAVEWESNGQPENNYKTTPPVLDSDGSFFLYSKLTVDKSRWQQGNVFSCSVMHEALHNHYTQKSLSLSPG
CD28
  Fold Increase over WT CD80-IgV-Fc: 0.7
  Relative Luciferase Units (RLU), CD80-Fc Conc. 50 nM: 394 RLU

B2: H18Y/E35DN68M/L97Q (protein)
chain: VIHVTKEVKEVATLSCGYNVSVEELAQTRIYWQKDKKMVLTMMSGDMNIWPEYKNRTIFDITNNLSIMILALRPSDEGTYECVVLKYEKDAFKREHQAEVTLSVKADEPKSSDKTHTCPPCPAPEAEGAPSVFLFPPKPKDTLMISRTPEVTCVVVDVSHEDPEVKFNWYVDGVEVHNAKTKPREEQYNSTYRVVSVLTVLHQDWLNGKEYKCKVSNKALPAPIEKTISKAKGQPREPQVYTLPPSREEMTKNQVSLTCLVKGFYPSDIAVEWESNGQPENNYKTTPPVLDSDGSFFLYSKLTVDKSRWQQGNVFSCSVMHEALHNHYTQKSLSLSPG
CD28
  Fold Increase over WT CD80-IgV-Fc: 7.7
  Relative Luciferase Units (RLU), CD80-Fc Conc. 50 nM: 4336 RLU

B3: H18Y/E35D/N48K (protein, UniProt P33681 35-288, looked up, variant H18Y E35D N48K)
T-lymphocyte activation …: VIHVTKEVKEVATLSCGYNVSVEELAQTRIYWQKDKKMVLTMMSGDMKIWPEYKNRTIFDITNNLSIVILALRPSDEGTYECVVLKYEKDAFKREHLAEVTLSVKADFPTPSISDFEIPTSNIRRIICSTSGGFPEPHLSWLENGEELNAINTTVSQDPETELYAVSSKLDFNMTTNHSFMCLIKYGHLRVNQTFNWNTTKQEHFPDNLLPSWAITLISVNGIFVICCLTYCFAPRCRERRRNERLRRESVRPV
CD28
  Relative Luciferase Units (RLU), CD80-Fe Cone 50 nM: 1230 RLU

B4: E35D/T41S/M47V/A71G/K89N (protein, UniProt P33681 35-288, looked up, variant E35D T41S M47V A71G K89N)
T-lymphocyte activation …: VIHVTKEVKEVATLSCGHNVSVEELAQTRIYWQKDKKMVLSMMSGDVNIWPEYKNRTIFDITNNLSIVILGLRPSDEGTYECVVLKYENDAFKREHLAEVTLSVKADFPTPSISDFEIPTSNIRRIICSTSGGFPEPHLSWLENGEELNAINTTVSQDPETELYAVSSKLDFNMTTNHSFMCLIKYGHLRVNQTFNWNTTKQEHFPDNLLPSWAITLISVNGIFVICCLTYCFAPRCRERRRNERLRRESVRPV
CD28
  Relative Luciferase Units (RLU), CD80-Fe Cone 50 nM: 1023 RLU

B5: E35D/M47V/N48T/L85Q (protein, UniProt P33681 35-288, looked up, variant E35D M47V N48T L85Q)
T-lymphocyte activation …: VIHVTKEVKEVATLSCGHNVSVEELAQTRIYWQKDKKMVLTMMSGDVTIWPEYKNRTIFDITNNLSIVILALRPSDEGTYECVVQKYEKDAFKREHLAEVTLSVKADFPTPSISDFEIPTSNIRRIICSTSGGFPEPHLSWLENGEELNAINTTVSQDPETELYAVSSKLDFNMTTNHSFMCLIKYGHLRVNQTFNWNTTKQEHFPDNLLPSWAITLISVNGIFVICCLTYCFAPRCRERRRNERLRRESVRPV
CD28
  Fold Increase over WT CD80-IgV-Fe: 4.4
  Relative Luciferase Units (RLU), CD80-Fe Cone 50 nM: 897 RLU

B6: E35D/D46E/M47V/A71D (protein, UniProt P33681 35-288, looked up, variant E35D D46E M47V A71D)
T-lymphocyte activation …: VIHVTKEVKEVATLSCGHNVSVEELAQTRIYWQKDKKMVLTMMSGEVNIWPEYKNRTIFDITNNLSIVILDLRPSDEGTYECVVLKYEKDAFKREHLAEVTLSVKADFPTPSISDFEIPTSNIRRIICSTSGGFPEPHLSWLENGEELNAINTTVSQDPETELYAVSSKLDFNMTTNHSFMCLIKYGHLRVNQTFNWNTTKQEHFPDNLLPSWAITLISVNGIFVICCLTYCFAPRCRERRRNERLRRESVRPV
CD28
  Relative Luciferase Units (RLU), CD80-Fe Cone 50 nM: 683 RLU

B7: Q27H/E35D/D46V/M47L/A71G (protein, UniProt P33681 35-288, looked up, variant Q27H E35D D46V M47L A71G)
T-lymphocyte activation …: VIHVTKEVKEVATLSCGHNVSVEELAHTRIYWQKDKKMVLTMMSGVLNIWPEYKNRTIFDITNNLSIVILGLRPSDEGTYECVVLKYEKDAFKREHLAEVTLSVKADFPTPSISDFEIPTSNIRRIICSTSGGFPEPHLSWLENGEELNAINTTVSQDPETELYAVSSKLDFNMTTNHSFMCLIKYGHLRVNQTFNWNTTKQEHFPDNLLPSWAITLISVNGIFVICCLTYCFAPRCRERRRNERLRRESVRPV
CD28
  Relative Luciferase Units (RLU), CD80-Fe Cone 50 nM: 978 RLU

B8: V22D/E35D/M47L/L70M/L97Q (protein)
chain: VIHVTKEVKEVATLSCGHNVSDEELAQTRIYWQKDKKMVLTMMSGDLNIWPEYKNRTIFDITNNLSIVIMALRPSDEGTYECVVLKYEKDAFKREHQAEVTLSVKADFPTPSISDFETPTSNIRRIICSTSGGFPEPHLSWLENGEELNAINTTVSQDPETELYAVSSKLDFNMTTNHSFMCLIKYGHLRVNQTFNWNTTKQEHFPDN
modifications: CD80 v283 ECD
CD28
  Relative Luciferase Units (RLU), CD80-Fe Cone 50 nM: 1542 RLU

B9: E35D/A71D/L72V/R73H/E81K (protein, UniProt P33681 35-288, looked up, variant E35D A71D L72V R73H E81K)
T-lymphocyte activation …: VIHVTKEVKEVATLSCGHNVSVEELAQTRIYWQKDKKMVLTMMSGDMNIWPEYKNRTIFDITNNLSIVILDVHPSDEGTYKCVVLKYEKDAFKREHLAEVTLSVKADFPTPSISDFEIPTSNIRRIICSTSGGFPEPHLSWLENGEELNAINTTVSQDPETELYAVSSKLDFNMTTNHSFMCLIKYGHLRVNQTFNWNTTKQEHFPDNLLPSWAITLISVNGIFVICCLTYCFAPRCRERRRNERLRRESVRPV
CD28
  Relative Luciferase Units (RLU), CD80-Fe Cone 50 nM: 282 RLU

B10: E35D/M38T/D46E/M47V/N48S (protein, UniProt P33681 35-288, looked up, variant E35D M38T D46E M47V N48S)
T-lymphocyte activation …: VIHVTKEVKEVATLSCGHNVSVEELAQTRIYWQKDKKTVLTMMSGEVSIWPEYKNRTIFDITNNLSIVILALRPSDEGTYECVVLKYEKDAFKREHLAEVTLSVKADFPTPSISDFEIPTSNIRRIICSTSGGFPEPHLSWLENGEELNAINTTVSQDPETELYAVSSKLDFNMTTNHSFMCLIKYGHLRVNQTFNWNTTKQEHFPDNLLPSWAITLISVNGIFVICCLTYCFAPRCRERRRNERLRRESVRPV
CD28
  Relative Luciferase Units (RLU), CD80-Fe Cone 50 nM: 1315 RLU

B11: E35D/M38T/M43V/M47V/N48R/L85Q (protein, UniProt P33681 35-288, looked up, variant E35D M38T M43V M47V N48R L85Q)
T-lymphocyte activation …: VIHVTKEVKEVATLSCGHNVSVEELAQTRIYWQKDKKTVLTMVSGDVRIWPEYKNRTIFDITNNLSIVILALRPSDEGTYECVVQKYEKDAFKREHLAEVTLSVKADFPTPSISDFEIPTSNIRRIICSTSGGFPEPHLSWLENGEELNAINTTVSQDPETELYAVSSKLDFNMTTNHSFMCLIKYGHLRVNQTFNWNTTKQEHFPDNLLPSWAITLISVNGIFVICCLTYCFAPRCRERRRNERLRRESVRPV
modifications: Fc fusion
CD28
  Fold Increase over WT CD80-IgV-Fe: 3.3
  Relative Luciferase Units (RLU), CD80-Fe Cone 50 nM: 680 RLU

B12: T28Y/Q33H/E35D/D46V/M47I/A71G (protein)
chain: VIHVTKEVKEVATLSCGHNVSVEELAQYRIYWHKDKKMVLTMMSGVINIWPEYKNRTIFDITNNLSIVILGLRPSDEGTYECVVLKYEKDAFKREHLAEVTLSVKADFPTPSISDFETPTSNIRRIICSTSGGFPEPHLSWLENGEELNAINTTVSQDPETELYAVSSKLDFNMTTNHSFMCLIKYGHLRVNQTFNWNTTKQEHFPDN
modifications: CD80 v291 ECD
CD28
  Fold Increase over WT CD80-IgV-Fe: 2.8
  Relative Luciferase Units (RLU), CD80-Fe Cone 50 nM: 580 RLU

B13: E35D/L85Q/K93T/E95V/L97Q (protein, UniProt P33681 35-288, looked up, variant E35D L85Q K93T E95V L97Q)
T-lymphocyte activation …: VIHVTKEVKEVATLSCGHNVSVEELAQTRIYWQKDKKMVLTMMSGDMNIWPEYKNRTIFDITNNLSIVILALRPSDEGTYECVVQKYEKDAFTRVHQAEVTLSVKADFPTPSISDFEIPTSNIRRIICSTSGGFPEPHLSWLENGEELNAINTTVSQDPETELYAVSSKLDFNMTTNHSFMCLIKYGHLRVNQTFNWNTTKQEHFPDNLLPSWAITLISVNGIFVICCLTYCFAPRCRERRRNERLRRESVRPV
CD28
  Fold Increase over WT CD80-IgV-Fe: 1.5
  Relative Luciferase Units (RLU), CD80-Fe Cone 50 nM: 315 RLU

B14: K36G/K37Q/M38I/L40M (protein)
chain: VIHVTKEVKEVATLSCGHNVSVEELAQTRIYWQKEGQIVMTMMSGDMNIWPEYKNRTIFDITNNLSIVILALRPSDEGTYECVVLKYEKDAFKREHLAEVTLSVKADFPTPSISDFEIPTSNIRRIICSTSGGFPEPHLSWLENGEELNAINTTVSQDPETELYAVSSKLDFNMTTNHSFMCLIKYGHLRVNQTFNWNTTKQEHFPDN
modifications: CD80 v49 ECD
Allogeneic CD4+ T cells
  MLR IFN-gamma levels: 811 pg/mL
Human pan T cells
  Coimmobilization with anti-CD3 IFN-gamma: 427 pg/mL

B15: K36G/L40M (protein)
chain: VIHVTKEVKEVATLSCGHNVSVEELAQTRIYWQKEGKMVMTMMSGDMNIWPEYKNRTIFDITNNLSIVILALRPSDEGTYECVVLKYEKDAFKREHLAEVTLSVKADFPTPSISDFEIPTSNIRRIICSTSGGFPEPHLSWLENGEELNAINTTVSQDPETELYAVSSKLDFNMTTNHSFMCLIKYGHLRVNQTFNWNTTKQEHFPDN
Allogeneic CD4+ T cells
  MLR IFN-gamma levels: 30558 pg/mL
Human pan T cells
  Coimmobilization with anti-CD3 IFN-gamma: 699 pg/mL
